These results are taken from PMC4519987.

Data set [1] deals with T1, SOX17-Flag (rSOX17-Flag) (UniProt Q9H6I2 1-414). Description: EMSA; EMSA: 100 mM HEPES pH 8.0, 50 mM KCl, 500 uM DTT, 50 uM EDTA, 1 mM MgCl2, 5% glycerol, 0.02 U poly(dG-dC), 0.3 pmol biotin probe, 300-fold excess competitor; 7%.
Data set [2] has as its target T1, SOX17-Flag (rSOX17-Flag). Description: competition; 300-fold excess vs Lef1_Biot; EMSA: 100 mM HEPES pH 8.0, 50 mM KCl, 500 uM DTT, 50 uM EDTA, 1 mM MgCl2, 5% glycerol, 0.02 U poly(dG-dC), 0.3 pmol biotin probe, 300-fold excess competitor; 7%.

T1 sequence (Q9H6I2 whole entry): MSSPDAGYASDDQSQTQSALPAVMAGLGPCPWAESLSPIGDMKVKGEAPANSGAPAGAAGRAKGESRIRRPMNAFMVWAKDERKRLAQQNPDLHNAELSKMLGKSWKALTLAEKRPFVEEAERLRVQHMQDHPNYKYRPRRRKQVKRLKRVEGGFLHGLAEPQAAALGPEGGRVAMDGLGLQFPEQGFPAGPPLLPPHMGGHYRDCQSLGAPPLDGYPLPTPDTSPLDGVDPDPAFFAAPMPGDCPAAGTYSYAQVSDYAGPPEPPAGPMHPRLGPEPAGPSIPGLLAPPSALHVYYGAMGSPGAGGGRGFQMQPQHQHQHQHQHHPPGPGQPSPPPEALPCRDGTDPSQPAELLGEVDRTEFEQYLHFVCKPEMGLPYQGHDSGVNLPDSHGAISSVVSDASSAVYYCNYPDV

B1: Lef1_Biot (dsDNA)
DNA 1: CATTTCTTTATGTCCTTTGTTTACTGTTCTG
DNA 2: CAGAACAGTAAACAAAGGACATAAAGAAATG
For the molecule B1, the binding result in the data set with SOX17-Flag (rSOX17-Flag) [1] is “binds”.

B2: Lef1_s1 (dsDNA)
DNA 1: CATTTCTTTATGTCCTTTGTTTACTGTTCTG
DNA 2: CAGAACAGTAAACAAAGGACATAAAGAAATG
Consider B2, for which the binding result with SOX17-Flag (rSOX17-Flag) [2] is given as “binds”.

B3: Lef1_Δ_s1 (dsDNA)
DNA 1: CATTTCTTTATGTCAGGGTGGTACTGTTCTG
DNA 2: CAGAACAGTACCACCCTGACATAAAGAAATG
For B3, the binding result with SOX17-Flag (rSOX17-Flag) [2] was “no binding”.
